This note sets out measurements from patent US20260217793A1 (Chugai, published 2026).

Holding throughout (test): SPR
A general note: Surface plasmon resonance follows binding to a sensor surface in real time, without labels.

In one test the target is T1, FcγRIIa type R (human, UniProt P12318 34-217).
T1 sequence (looked up): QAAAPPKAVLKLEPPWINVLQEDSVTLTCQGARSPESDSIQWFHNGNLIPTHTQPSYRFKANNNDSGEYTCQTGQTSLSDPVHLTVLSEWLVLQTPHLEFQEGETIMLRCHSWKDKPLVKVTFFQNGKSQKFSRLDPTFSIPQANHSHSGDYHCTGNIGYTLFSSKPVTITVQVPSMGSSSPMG

The next test has as its target FcγRIa (human, UniProt P12314 16-292).
In a further test the target is FcγRIIIa type V (human, UniProt P08637 17-208).
FcγRIIIa type V, sequence (P08637 17-208 F176V): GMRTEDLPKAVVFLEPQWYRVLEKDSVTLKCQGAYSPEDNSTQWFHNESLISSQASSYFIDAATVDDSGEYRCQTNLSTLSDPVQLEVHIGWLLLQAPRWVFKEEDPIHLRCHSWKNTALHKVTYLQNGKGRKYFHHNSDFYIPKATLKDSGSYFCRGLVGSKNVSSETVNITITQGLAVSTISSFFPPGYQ
The next test has as its target T2, FcγRIIb (human, UniProt P31994 43-217).
T2 sequence (looked up): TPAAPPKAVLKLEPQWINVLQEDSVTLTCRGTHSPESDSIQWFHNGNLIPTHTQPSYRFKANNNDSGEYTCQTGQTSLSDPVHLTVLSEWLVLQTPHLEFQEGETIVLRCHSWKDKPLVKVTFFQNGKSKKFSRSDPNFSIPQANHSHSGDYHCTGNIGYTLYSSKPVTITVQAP

A further test has as its target T3, FcγRIIa type H (human, UniProt P12318 34-217).
T3 sequence (looked up): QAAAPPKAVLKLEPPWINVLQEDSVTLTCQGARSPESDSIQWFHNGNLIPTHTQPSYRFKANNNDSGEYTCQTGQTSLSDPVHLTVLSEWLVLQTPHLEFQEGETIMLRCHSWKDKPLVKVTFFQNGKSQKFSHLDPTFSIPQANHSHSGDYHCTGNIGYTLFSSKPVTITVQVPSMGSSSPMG

FcγRIa, sequence (P12314 16-292): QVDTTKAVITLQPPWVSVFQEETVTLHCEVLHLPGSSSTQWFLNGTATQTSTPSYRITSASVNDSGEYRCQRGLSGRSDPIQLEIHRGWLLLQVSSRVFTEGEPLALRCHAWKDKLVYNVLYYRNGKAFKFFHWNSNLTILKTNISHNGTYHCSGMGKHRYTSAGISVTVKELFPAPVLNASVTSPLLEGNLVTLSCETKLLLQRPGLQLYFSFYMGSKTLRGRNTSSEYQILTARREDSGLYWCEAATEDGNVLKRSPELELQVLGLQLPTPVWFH

B1: IL6R-BP198/IL6R-L (antibody, human IgG1, kappa)
heavy: QVQLQESGPGLVKPSETLSLTCAVSGHSISHDHAWSWVRQPPGEGLEWIGFISYSGITNYNPSLQGRVTISRDNSKNTLYLQMNSLRAEDTAVYYCARSLARTTAMDYWGEGTLVTVSSASTKGPSVFPLAPSSKSTSGGTAALGCLVKDYFPEPVTVSWNSGALTSGVHTFPAVLQSSGLYSLSSVVTVPSSSLGTQTYICNVNHKPSNTKVDKKVEPKSCDKTHTCPPCPAPDYLGGDSVFLFPPKPKDTLMISRTPEVTCVVVDVSDEDGEVKFNWYVDGVEVHNAKTKPREEQYNSTYRVVSVLTVLHQDWLNGKEYKCKVSNAALPKPIEKTISKAKGQPREPQVYTLPPSRDELTKNQVSLTCLVKGFYPSDIAVEWESNGQPENNYKTTPPVLDSDGSFFLYSKLTVDKSRWQQGNVFSCSVMHEALHNHYTQESLSLSP
light: not shown
On to B1, for which the relative binding activity was 449 % of control in the test with FcγRIIa type R; 104 % of control with FcγRIa; 157 % of control in the test with FcγRIIIa type V; 164 % of control with FcγRIIb; 188 % of control with FcγRIIa type H.
